Measurements as given in US20260217852A1 (ZONHON BIOPHARMA INSTITUTE, published 2026).

Tests used:
[1] = molecular target: T1, CD26 on cells (786-0, OS-RC-2, UT16, NCI-H226 tumor cells; PBMCs) (human, UniProt P27487 1-766); assay: flow cytometry, PBMCs in a mixed system with 786-0 cells, antibody at 0.3 ug/mL
T1 construct: whole, on cells; The background says that CD26 commonly exists as a homodimer; also called CD26 target on tumor cells; CD26 on PBMCs

CD3 protein = assay: BLI (ForteBio), biotinylated CD3 protein on SA biosensors, antibody at 500 nM
Method: CD3 protein was first biotinylated using EZ-Link NHS-PEG12-Biotin, and the biotinylated protein was immobilized on SA biosensors. The biosensors were then equilibrated in 1× Kinetics Buffer, followed by incubation with the humanized bispecific antibody solution to allow binding. The concentration of the humanized bispecific antibody solution was 500 nM. Afterward, the biosensors were placed in 1× Kinetics Buffer for dissociation. Data were analyzed using Fortebio Data Analysis 8.0 software to calculate the affinity constant values.

T1 sequence (P27487 whole entry): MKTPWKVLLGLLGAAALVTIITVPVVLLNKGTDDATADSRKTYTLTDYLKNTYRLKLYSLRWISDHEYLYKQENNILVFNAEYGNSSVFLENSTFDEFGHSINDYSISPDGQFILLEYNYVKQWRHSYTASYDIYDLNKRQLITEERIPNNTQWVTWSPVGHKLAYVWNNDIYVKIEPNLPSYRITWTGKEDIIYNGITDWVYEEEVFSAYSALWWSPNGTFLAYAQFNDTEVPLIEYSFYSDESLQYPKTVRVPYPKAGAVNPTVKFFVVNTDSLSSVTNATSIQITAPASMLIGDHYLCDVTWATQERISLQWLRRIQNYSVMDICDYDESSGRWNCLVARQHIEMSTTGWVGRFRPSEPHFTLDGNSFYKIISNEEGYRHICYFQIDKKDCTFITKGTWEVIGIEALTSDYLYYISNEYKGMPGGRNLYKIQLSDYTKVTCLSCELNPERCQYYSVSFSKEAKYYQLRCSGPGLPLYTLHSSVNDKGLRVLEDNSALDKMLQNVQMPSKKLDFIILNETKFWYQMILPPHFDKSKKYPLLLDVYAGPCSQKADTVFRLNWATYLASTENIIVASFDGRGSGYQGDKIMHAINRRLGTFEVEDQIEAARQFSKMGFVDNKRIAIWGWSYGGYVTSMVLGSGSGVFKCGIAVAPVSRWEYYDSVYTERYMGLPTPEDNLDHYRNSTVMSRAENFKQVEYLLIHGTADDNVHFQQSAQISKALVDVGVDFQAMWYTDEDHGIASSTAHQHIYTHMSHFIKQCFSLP

Binder	binding result [1]	Kd (CD3 protein) [nM]	koff (CD3 protein) [s⁻¹]	kon (CD3 protein) [M⁻¹ s⁻¹]
full-length humanized anti-CD26 antibody 21G428-429 (antibody, human IgG1, kappa, V domains shown, Derived from mouse antibody No. 62; About 150 kDa) VH: EVQLVQSGAELVKPGASVKLSCAASGFNIKDTYIYWVRQAPGQGLEWVGRIEPMNGNTKYDPKFQGRFTMTANTSKNTAYLQLSSLRSEDTAVYYCSRGGWLLLYVMDYWGQGTLVTVSS VL: DIVMTQSPSSLSVTPGERVSISCRSDKSLLHSNGNTYLYWFLQKPGQSPQVLIYRMSNLASGVPDRFSGSGSGTDFTLTISRVEAEDVGVYYCFQQLEYPYTFGQGTKLEIKR	binds	–	–	–
humanized CD26-CD3 BiTE bispecific antibody 19G300 (bispecific antibody, Single chain of about 55 kDa; also called humanized bispecific antibody 19G300) scFv: DIQMTQSPSSLSASPGDRVTISCRASQDIGNFLTWYQQKPGQAPKLLIYYRSRLHSGVPSRFSGSGSGTDYTLTISSLEPEDFATYYCQQDNTLPWTFGQGTKVEIKGGGGSGGGGSGGGGSEVQLVESGGGLVQPGGSLRLSCAASGFTFTNYYMSWVRQAPGKGLEWVAFIRDKANGYTTEYSASVKGRFTISRDNSKNTLYLQMNSLRAEDTAVYYCARVLRYLGYNFDYWGQGTLVTVSSGGGGSDVQLVQSGAEVKKPGASVKVSCKASGYTFTRYTMHWVRQAPGQGLEWIGYINPSRGYTNYADSVKGRFTITTDKSTSTAYMELSSLRSEDTATYYCARYYDDHYCLDYWGQGTTVTVSSGGGGSGGGGSGGGGSDIVLTQSPATLSLSPGERATLSCRASQSVSYMNWYQQKPGKAPKRWIYDTSKVASGVPARFSGSGSGTDYSLTINSLEAEDAATYYCQQWSSNPLTFGGGTKVEIK	–	1.61	0.000137	84800
